From paper doi:10.1101/2023.02.18.529070 (bioRxiv, 2023)

B1: recombinant human LRG1 (leucine-rich alpha-2-glycoprotein 1) (ligand, UniProt P02750 36-347, looked up)
chain: VTLSPKDCQVFRSDHGSSISCQPPAEIPGYLPADTVHLAVEFFNLTHLPANLLQGASKLQELHLSSNGLESLSPEFLRPVPQLRVLDLTRNALTGLPPGLFQASATLDTLVLKENQLEVLEVSWLHGLKALGHLDLSGNRLRKLPPGLLANFTLLRTLDLGENQLETLPPDLLRGPLQLERLHLEGNKLQVLGKDLLLPQPDLRYLFLNGNKLARVAAGAFQGLRQLDMLDLSNNSLASVPEGLWASLGQPNWDMRDGFDISGNPWICDQNLSDLYRWLQAQKDKMFSQNDTRCAGPEAVKGQTLLAVAKSQ
B2: neuregulin-beta1 (Ser 2-Lys 246 N-terminal fragment) (ligand, human, UniProt Q02297-6 2-246, looked up)
chain: SERKEGRGKGKGKKKERGSGKKPESAAGSQSPALPPRLKEMKSQESAAGSKLVLRCETSSEYSSLRFKWFKNGNELNRKNKPQNIKIQKKPGKSELRINKASLADSGEYMCKVISKLGNDSASANITIVESNEIITGMPASTEGAYVSSESPIRISVSTEGANTSSSTSTSTTGTSHLVKCAEKEKTFCVNGGECFMVKDLSNPSRYLCKCPNEFTGDRCQNYVMASFYKHLGIEFMEAEELYQK

Molecular target: recombinant human HER3 extracellular domain (human, UniProt P21860 20-643)
Experiment: BLI

Sequence of recombinant human HER3 extracellular domain (P21860 20-643): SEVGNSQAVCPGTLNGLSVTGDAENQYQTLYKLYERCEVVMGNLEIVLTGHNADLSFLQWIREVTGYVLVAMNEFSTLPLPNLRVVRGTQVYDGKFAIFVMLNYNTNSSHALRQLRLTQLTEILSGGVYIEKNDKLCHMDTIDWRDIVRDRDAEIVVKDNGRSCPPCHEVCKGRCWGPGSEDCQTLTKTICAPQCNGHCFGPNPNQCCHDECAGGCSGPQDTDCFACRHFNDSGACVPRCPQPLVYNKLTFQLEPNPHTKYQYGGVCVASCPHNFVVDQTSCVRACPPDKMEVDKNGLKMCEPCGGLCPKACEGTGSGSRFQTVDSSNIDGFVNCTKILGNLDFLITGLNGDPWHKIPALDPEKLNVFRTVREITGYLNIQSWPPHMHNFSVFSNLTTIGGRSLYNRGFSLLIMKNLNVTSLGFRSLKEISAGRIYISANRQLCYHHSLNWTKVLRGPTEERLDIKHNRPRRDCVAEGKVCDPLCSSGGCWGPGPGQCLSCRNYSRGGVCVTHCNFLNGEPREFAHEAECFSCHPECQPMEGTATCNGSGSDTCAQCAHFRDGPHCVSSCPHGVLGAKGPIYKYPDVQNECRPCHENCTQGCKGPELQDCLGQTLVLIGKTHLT

Binder	Kd [nM]	fold binding affinity against neuregulin-HER3 [fold]	binding result
B1	100	> 3	
B2			binds
